Target: the molecule itself
Assay: SEC; Biogel P-100 column; CLA incubated 5 h at room temperature at pH 7, 5 or 4 (10 mM Na-phosphate or Na-acetate, 150 mM NaCl); mass from a standard curve run at pH 7

B1: Curcuma longa rhizome lectin (natural protein)
chain: KNILLSGETLETGKFLTEGEFTFLMQSDCNLVLYDLNRPIWSSGTIHKGSGCILKMQNDGNLVIYNVTNNAIWASNTGGQQGNYILILQRDRNVVIYSQPIFNTDTAVSKLNSSNLGETGNGGNIAQPENKIAIGASNGHNANILPSGETLPTGKLTLPSEVATETGK
modifications: glycosylated (glycoprotein with about 5.2% covalently bound sugar); sites not stated
For B1, the “stoichiometry N” value was 2.
